Measurements reported in patent publication US20170174740A1.

How the values were obtained:
[1] = target: syntaxin (SNARE protein; expressed from a plasmid in CHO cells for co-immunoprecipitation); experiment: co-immunoprecipitation with anti-syntaxin from CHO cells expressing syntaxin and Kv2.1 with C1a441-472 co-expressed as competitor; the ratio is Kv2.1 pulled down with syntaxin; mean±SEM, n=3
[2] = target: syntaxin (SNARE protein; expressed from a plasmid in CHO cells for co-immunoprecipitation); experiment: co-immunoprecipitation with anti-syntaxin from CHO cells expressing syntaxin and Kv2.1, no C1a segment; mean±SEM, n=3

syntaxin (SNARE protein; expressed from a plasmid in CHO cells for co-immunoprecipitation), sequence (Q16623 whole entry): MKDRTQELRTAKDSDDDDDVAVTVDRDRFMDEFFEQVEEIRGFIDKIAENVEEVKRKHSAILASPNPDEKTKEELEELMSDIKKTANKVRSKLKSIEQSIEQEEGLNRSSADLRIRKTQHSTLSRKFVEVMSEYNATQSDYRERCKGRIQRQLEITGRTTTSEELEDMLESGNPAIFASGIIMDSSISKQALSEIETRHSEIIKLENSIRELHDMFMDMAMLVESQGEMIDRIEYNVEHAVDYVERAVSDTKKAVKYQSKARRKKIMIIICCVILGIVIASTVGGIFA

B1: C1a441-472 (overlapping middle segment of C1a) (peptide)
peptide: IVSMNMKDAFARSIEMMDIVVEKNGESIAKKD
Binder B1 has a ratio of Kv2.1 to syntaxin immunoblots [1] of 0.25.

B2: Kv2.1 (wild-type voltage-dependent delayed-rectifier K+ channel, expressed in CHO cells) (protein)
chain: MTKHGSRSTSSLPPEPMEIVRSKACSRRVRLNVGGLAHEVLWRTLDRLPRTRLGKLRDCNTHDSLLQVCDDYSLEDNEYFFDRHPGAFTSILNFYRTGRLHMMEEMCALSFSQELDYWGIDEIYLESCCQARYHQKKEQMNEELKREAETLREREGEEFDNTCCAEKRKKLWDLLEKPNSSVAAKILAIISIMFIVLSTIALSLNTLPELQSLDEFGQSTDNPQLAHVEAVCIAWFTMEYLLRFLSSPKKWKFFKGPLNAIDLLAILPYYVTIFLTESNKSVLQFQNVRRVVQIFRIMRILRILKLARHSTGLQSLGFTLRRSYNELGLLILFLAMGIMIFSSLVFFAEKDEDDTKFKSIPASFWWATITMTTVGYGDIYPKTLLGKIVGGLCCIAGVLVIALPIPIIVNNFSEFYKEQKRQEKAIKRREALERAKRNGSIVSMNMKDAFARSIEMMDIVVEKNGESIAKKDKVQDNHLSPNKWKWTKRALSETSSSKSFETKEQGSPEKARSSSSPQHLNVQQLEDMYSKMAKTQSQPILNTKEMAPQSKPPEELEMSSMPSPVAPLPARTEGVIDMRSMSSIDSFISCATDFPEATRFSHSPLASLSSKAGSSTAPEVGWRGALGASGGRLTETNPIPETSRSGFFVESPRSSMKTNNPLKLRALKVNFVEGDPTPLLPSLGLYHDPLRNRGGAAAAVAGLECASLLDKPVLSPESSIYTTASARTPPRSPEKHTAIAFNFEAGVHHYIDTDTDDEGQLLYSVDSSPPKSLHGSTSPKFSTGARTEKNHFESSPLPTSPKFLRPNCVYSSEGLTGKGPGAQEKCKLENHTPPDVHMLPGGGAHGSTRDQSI
B2 showed a ratio of Kv2.1 to syntaxin immunoblots [2] of 0.24.
